Where “and” joins values, the source holds several entries; their conditions need not be identical. Equal values may be shown once.
B1: OsE: wild type Oryza sativa EPSPS gene, SEQ ID NO.1; control group (nucleic acid, listed as Oryza sativa)
DNA: ATGGCGTCCAACGCCGCGGCTGCGGCGGCGAAGGCGGAGGAGATCGTGCTCCAGCCCATCAGGGAGATCTCCGGGGCGGTTCAGCTGCCAGGGTCCAAGTCGCTCTCCAACAGGATCCTCCTCCTCTCCGCCCTCTCCGAGGGCACAACAGTGGTGGACAACTTGCTGAACAGTGAGGATGTTCACTACATGCTTGAGGCCCTGAAAGCCCTCGGGCTCTCTGTGGAAGCAGATAAAGTTGCAAAAAGAGCTGTAGTCGTTGGCTGTGGTGGCAAGTTTCCTGTTGAGAAGGATGCGAAAGAGGAAGTGCAACTCTTCTTGGGGAACGCTGCGACTGCAATGCGACTCTTGACAGCAGCCGTGACTGCTGCTGGTGGAAATGCAACTTATGTGCTTGATGGAGTGCCACGAATGAGGGAGAGACCGATTGGTGACTTGGTTGTCGGGTTGAAACAACTTGGTGCGGATGTCGACTGTTTCCTTGGCACTGAATGCCCACCTGTTCGTGTCAAGGGAATTGGAGGACTTCCTGGTGGCAAGGTTAAGCTCTCTGGTTCCATCAGCAGTCAGTACTTGAGTGCCTTGCTGATGGCTGCTCCTTTGGCCCTTGGGGATGTGGAGATCGAAATCATTGACAAACTAATCTCCATTCCTTACGTTGAAATGACATTGAGATTGATGGAGCGTTTTGGTGTGAAGGCAGAGCATTCTGATAGTTGGGACAGATTCTATATTAAGGGAGGGCAGAAGTACAAATCTCCTGGAAATGCCTATGTTGAAGGTGATGCCTCAAGCGCGAGCTATTTCTTGGCTGGTGCTGCAATCACTGGAGGCACTGTGACAGTTCAAGGTTGTGGTACGACCAGTTTGCAGGGTGATGTCAAATTTGCTGAGGTACTTGAGATGATGGGAGCAAAGGTTACATGGACTGACACCAGTGTAACCGTAACTGGTCCACCACGTGAGCCTTATGGGAAGAAACACCTGAAAGCTGTTGATGTCAACATGAACAAAATGCCTGATGTTGCCATGACCCTTGCCGTTGTTGCACTCTTCGCTGATGGTCCAACTGCTATCAGAGATGTGGCTTCCTGGAGAGTAAAGGAAACCGAAAGGATGGTTGCAATTCGGACCGAGCTAACAAAGCTGGGAGCATCGGTTGAAGAAGGTCCTGACTACTGCATCATCACCCCACCGGAGAAGCTGAACATCACGGCAATCGACACCTACGATGATCACAGGATGGCCATGGCCTTCTCCCTCGCTGCCTGCGCCGACGTGCCCGTGACGATCAGGGACCCTGGTTGCACCCGCAAGACCTTCCCCAACTACTTCGACGTTCTAAGCACTTTCGTCAGGAACTGA
B2: GmE: wild type Glycine max EPSPS gene, SEQ ID NO.5; control group (nucleic acid)
DNA: ATGGATAGCGTGGCGGCGGCGGAAAAACCGAGCACCAGCCCGGAAATTGTGCTGGAACCGATTAAAGATTTTAGCGGCACCATTACCCTGCCGGGCAGCAAAAGCCTGAGCAACCGCATTCTGCTGCTGGCGGCGCTGAGCGAAGGCACCACCGTGGTGGATAACCTGCTGTATAGCGAAGATATTCATTATATGCTGGGCGCGCTGCGCACCCTGGGCCTGCGCGTGGAAGATGATAAAACCACCAAACAGGCGATTGTGGAAGGCTGCGGCGGCCTGTTTCCGACCAGCAAAGAAAGCAAAGATGAAATTAACCTGTTTCTGGGCAACGCGGCGACCGCGATGCGCAGCCTGACCGCGGCGGTGGTGGCGGCGGGCGGCAACGCGAGCTATGTGCTGGATGGCGTGCCGCGCATGCGCGAACGCCCGATTGGCGATCTGGTGGCGGGCCTGAAACAGCTGGGCGCGGATGTGGATTGCTTTCTGGGCACCAACTGCCCGCCGGTGCGCGTGAACGGCAAAGGCGGCCTGCCGGGCGGCAAAGTGAAACTGAGCGGCAGCGTGAGCAGCCAGTATCTGACCGCGCTGCTGATGGCGGCGCCGCTGGCGCTGGGCGATGTGGAAATTGAAATTGTGGATAAACTGATTAGCGTGCCGTATGTGGAAATGACCCTGAAACTGATGGAACGCTTTGGCGTGAGCGTGGAACATAGCGGCAACTGGGATCGCTTTCTGGTGCATGGCGGCCAGAAATATAAAAGCCCGGGCAACGCGTTTGTGGAAGGCGATGCGAGCAGCGCGAGCTATCTGCTGGCGGGCGCGGCGATTACCGGCGGCACCATTACCGTGAACGGCTGCGGCACCAGCAGCCTGCAGGGCGATGTGAAATTTGCGGAAGTGCTGGAAAAAATGGGCGCGAAAGTGACCTGGAGCGAAAACAGCGTGACCGTGAGCGGCCCGCCGCGCGATTTTAGCGGCCGCAAAGTGCTGCGCGGCATTGATGTGAACATGAACAAAATGCCGGATGTGGCGATGACCCTGGCGGTGGTGGCGCTGTTTGCGAACGGCCCGACCGCGATTCGCGATGTGGCGAGCTGGCGCGTGAAAGAAACCGAACGCATGATTGCGATTTGCACCGAACTGCGCAAACTGGGCGCGACCGTGGAAGAAGGCCCGGATTATTGCGTGATTACCCCGCCGGAAAAACTGAACGTGACCGCGATTGATACCTATGATGATCATCGCATGGCGATGGCGTTTAGCCTGGCGGCGTGCGGCGATGTGCCGGTGACCATTAAAGATCCGGGCTGCACCCGCAAAACCTTTCCGGATTATTTTGAAGTGCTGGAACGCCTGACCAAACATTAA
modifications: Glycine max
notes: control group

What was measured:
[1] = system: E. coli (EPSPS gene-and-C-P lyase genes-deleted strain); experiment: glyphosate resistance testing of Oryza sativa EPSPS mutant gene: growth of transformed E. coli on culture media containing glyphosate; format: cell-based; design: key: saturation index=0, no growth; saturation index=1, minor growth; saturation index=2, growth to half-saturation; saturation index=3, vigorous growth, but still not saturated; saturation index=4, rapid growth, meaning the strains have reached the maximum (saturation) concentration or the growth has reached the limit; settings: E. coli transformed with the gene
Procedure: A plurality of the above obtained mutant strains were inoculated on a plurality of screening culture media with different concentrations of glyphosate, respectively (the screening culture media contained different concentrations of glyphosate, and the glyphosate concentrations contained in them were 10 mM, 20 mM, 50 mM, etc., respectively, having a gradient in glyphosate concentrations, and of course, the glyphosate concentration may be set as required), and cultured at 37° C. overnight. The screening culture media were obtained by using M9 as a basal medium, to which certain concentrations of antibiotics, including Specs (Spectinomycin), Gen (Gentamycin) and Amp (Ampicillin), and different concentrations of glyphosate were added. M9 culture medium consists of the following ingredients: 13˜14 g/L of Na2HPO4, 5.7˜6.3 g/L of KH2PO4, 0.9˜1.1 g/L of NaCl, 1.8˜2.2 g/L of NH4Cl, 37˜43 g/L of glucose, 48˜52 g/L of MgSO4.7H2O and 21˜23 g/L of CaCl2.
(§1) For glyphosate resistance testing of Oryza sativa EPSPS mutant gene, E. coli (EPSPS gene-and-C-P lyase genes-deleted strain) respectively transformed with OsEM gene (experimental group) and OsE gene (control group) were inoculated to culture media containing 0 mM, 1 mM, 5 mM, 10 mM, 20 mM, 50 mM and 100 mM glyphosate to see the growth of E. coli (indicated by growth saturation index: saturation index=0, no growth; saturation index=1, minor growth; saturation index=2, growth to half-saturation; saturation index=3, vigorous growth, but still not saturated; saturation index=4, rapid growth, meaning the strains have reached the maximum (saturation) concentration or the growth has reached the limit).

[2] = system: E. coli (EPSPS gene-and-C-P lyase genes-deleted strain); experiment: glyphosate resistance testing of Glycine max EPSPS mutant gene: growth of transformed E. coli on culture media containing glyphosate; format: cell-based; design: key: saturation index=0, no growth; saturation index=1, minor growth; saturation index=2, growth to half-saturation; saturation index=3, vigorous growth, but still not saturated; saturation index=4, rapid growth, meaning the strains have reached the maximum (saturation) concentration or the growth has reached the limit; settings: E. coli transformed with the gene
Procedure: as §1
For glyphosate resistance testing of Glycine max EPSPS mutant gene, E. coli (EPSPS gene-and-C-P lyase genes-deleted strain) respectively transformed with GmEM gene (experimental group) and GmE gene (control group) were inoculated to culture media containing 0 mM, 1 mM, 5 mM, 10 mM, 20 mM, 50 mM and 100 mM glyphosate to see the growth of E. coli.

[3] = culture medium with 0 mM glyphosate
[4] = culture medium with 1 mM glyphosate
[5] = culture medium with 5 mM glyphosate
[6] = culture medium with 10 mM glyphosate
[7] = culture medium with 20 mM glyphosate
[8] = culture medium with 50 mM glyphosate
[9] = culture medium with 100 mM glyphosate

Molecule	Growth saturation index [1, 3]	Growth saturation index [1, 4]	Growth saturation index [1, 5]	Growth saturation index [1, 6]	Growth saturation index [1, 7]	Growth saturation index [1, 8]	Growth saturation index [1, 9]	Growth saturation index [2, 3]	Growth saturation index [2, 4]	Growth saturation index [2, 5]	Growth saturation index [2, 6]	Growth saturation index [2, 7]	Growth saturation index [2, 8]	Growth saturation index [2, 9]
B1	4	0	0	0	0	0	0	–	–	–	–	–	–	–
B2	–	–	–	–	–	–	–	4	cannot grow normally and 0	cannot grow normally and 0	cannot grow normally and 0	cannot grow normally and 0	cannot grow normally and 0	0
